Test results as given in patent US6008320A, “Elastase inhibitor and process for preparing the same” (Korea Advanced Institute of Science and Technology, priority 1995, dated 1999).
“Also recorded” adds a separate entry of the source.

Columns and labels:
elastase [1] = target: T1, elastase (Homo sapiens, UniProt P08246); settings: other elastase-inhibiting proteins in the prior art; read-out: inhibition constant; cited from earlier work
T1 sequence (P08246 30-267): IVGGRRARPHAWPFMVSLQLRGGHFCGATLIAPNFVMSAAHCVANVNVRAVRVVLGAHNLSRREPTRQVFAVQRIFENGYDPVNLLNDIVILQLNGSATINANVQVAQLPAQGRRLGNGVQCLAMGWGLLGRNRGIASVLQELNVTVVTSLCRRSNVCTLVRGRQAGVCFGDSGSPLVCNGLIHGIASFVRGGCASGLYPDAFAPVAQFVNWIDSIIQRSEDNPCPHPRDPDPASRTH

trypsin = target: T2, trypsin (Bos taurus, UniProt P00760); assay: Specificity of inhibiting activity: trypsin; type: biochemical
T2 construct: gene PRSS1
T2 sequence (P00760 24-246): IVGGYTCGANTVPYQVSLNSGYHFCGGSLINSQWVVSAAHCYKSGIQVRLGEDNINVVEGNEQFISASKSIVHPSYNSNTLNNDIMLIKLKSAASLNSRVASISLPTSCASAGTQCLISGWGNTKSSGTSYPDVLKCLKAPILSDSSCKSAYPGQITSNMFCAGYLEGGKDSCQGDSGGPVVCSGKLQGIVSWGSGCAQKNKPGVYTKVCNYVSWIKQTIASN
Protocol: (§1) The specific activities of Guamerin on the other types of proteases beside elastase, were studied; and, it was determined that: while it has no effect on papain, pepsin, thrombin, and factor Xa, Guamerin had about 15% of inhibiting-activity against trypsin, chymotrypsin, and subtilisin. […] In FIG. 4, HL-elastase and PP-elastase represent the ones isolated from human leukocyte and porcine pancreas, respectively.

elastase [2] = assay: Elastase-inhibiting activity assay (decrease in ρ-nitroaniline degrading activity of elastase); type: biochemical; settings: 1 U = amount of inhibitor that decreases the degradation of 1 μM ρ-nitroaniline by elastase per minute; 37° C., 50 min
Protocol: The activity of the purified Guamerin was assayed as follows: 50 μl of elastase-containing solution(0.37 mg/ml) and 500 μl of 1 mM .rho.-nitroaniline were mixed together, and 50 μl of each of fractions obtained in the course of purification was added to the mixture, and left to react at 37° C. for 50 min. The absorbance(O.D.) at 440 nm calculated in terms of the hydrolysed .rho.-nitroaniline, was measured. O.D. values of the control and the active fractions were compared, and the activity of Guamerin was determined, based on the decrease in .rho.-nitroaniline degradating activity of elastase.
Protein was quantitatively assayed by Bradford method(see: Bradford, M. M., Anal. Biochem., 72: 248-254(1976)). In this regard, one unit(1 U) was defined as the amount of inhibitor that decreases the degradation of 1 μM .rho.-nitroaniline by elastase per minute.

elastase [3] = assay: Specificity of inhibiting activity: elastase; type: biochemical; settings: FIG. 4: HL-elastase (human leukocyte) and PP-elastase (porcine pancreas)
Protocol: as §1

thrombin = thrombin (Homo sapiens, UniProt P00734); assay: Specificity of inhibiting activity: thrombin; type: biochemical
Protocol: as §1

chymotrypsin = chymotrypsin (Bos taurus, UniProt P00766); assay: Specificity of inhibiting activity: chymotrypsin; type: biochemical
Protocol: as §1

factor Xa = factor Xa (Homo sapiens, UniProt P00742); assay: Specificity of inhibiting activity: factor Xa; type: biochemical
factor Xa, sequence (P00742 235-488 limits assumed): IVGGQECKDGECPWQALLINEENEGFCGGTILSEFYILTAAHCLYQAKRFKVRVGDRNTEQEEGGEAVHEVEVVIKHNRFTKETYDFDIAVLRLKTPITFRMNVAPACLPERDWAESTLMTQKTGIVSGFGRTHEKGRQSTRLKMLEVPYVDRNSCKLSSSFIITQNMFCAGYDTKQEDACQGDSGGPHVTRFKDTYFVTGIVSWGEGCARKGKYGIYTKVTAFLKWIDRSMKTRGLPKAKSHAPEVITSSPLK
Protocol: as §1

papain = target: T3, papain (Carica papaya, UniProt P00784); assay: Specificity of inhibiting activity: papain; type: biochemical
T3 sequence (P00784 134-345): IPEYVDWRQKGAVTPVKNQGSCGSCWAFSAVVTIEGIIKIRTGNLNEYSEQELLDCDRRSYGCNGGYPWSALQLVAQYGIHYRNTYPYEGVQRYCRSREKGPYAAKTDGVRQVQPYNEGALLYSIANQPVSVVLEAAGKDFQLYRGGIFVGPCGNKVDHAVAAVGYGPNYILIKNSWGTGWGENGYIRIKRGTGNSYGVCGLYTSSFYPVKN
Protocol: as §1

subtilisin = assay: Specificity of inhibiting activity: subtilisin; type: biochemical
Protocol: as §1

elastase [4] = target: T4, elastase (Homo sapiens, UniProt P08246); assay: Determination of inhibition constant and inhibition mechanism; type: biochemical; settings: FIG. 5
T4 sequence (P08246 30-247 limits assumed): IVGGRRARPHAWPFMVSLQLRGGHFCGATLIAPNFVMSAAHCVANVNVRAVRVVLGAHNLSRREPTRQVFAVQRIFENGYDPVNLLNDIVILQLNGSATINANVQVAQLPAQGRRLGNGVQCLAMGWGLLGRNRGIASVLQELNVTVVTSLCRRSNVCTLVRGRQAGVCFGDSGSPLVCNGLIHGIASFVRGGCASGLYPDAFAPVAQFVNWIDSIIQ

[5] = Heat stability of Guamerin activity; type: physicochemical; settings: 40° C. to 100° C. at an interval of 10° C., 15 min
Protocol: To investigate the effect of heat on the activity of Guamerin, it was subjected to heating condition at an interval of 10° C. ranging from 40° C. to 100° C. for 15 min(see: FIG. 6).

pepsin = pepsin (Homo sapiens, UniProt P0DJD8); assay: Specificity of inhibiting activity: pepsin; type: biochemical
pepsin, sequence (P0DJD8 63-388): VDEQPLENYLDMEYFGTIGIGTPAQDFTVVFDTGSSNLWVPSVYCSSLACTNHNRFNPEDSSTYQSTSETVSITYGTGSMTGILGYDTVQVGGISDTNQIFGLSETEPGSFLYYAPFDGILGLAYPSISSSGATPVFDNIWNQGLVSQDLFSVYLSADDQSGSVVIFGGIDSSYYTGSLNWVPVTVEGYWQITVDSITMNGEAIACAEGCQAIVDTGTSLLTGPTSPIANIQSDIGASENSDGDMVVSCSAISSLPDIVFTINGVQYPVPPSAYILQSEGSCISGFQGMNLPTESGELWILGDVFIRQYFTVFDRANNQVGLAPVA
Protocol: as §1

| Substance | Ki (elastase [1]) [nM] | inhibiting-activity against trypsin (trypsin) | Specific activity (elastase [2]) [units/mg] | inhibiting activity on elastase (elastase [3]) | effect on thrombin (thrombin) | inhibiting-activity against chymotrypsin (chymotrypsin) | effect on factor Xa (factor Xa) | effect on papain (papain) | inhibiting-activity against subtilisin (subtilisin) | mechanism of elastase inhibition (elastase [4]) | change in activity after heating [5] | effect on pepsin (pepsin) |
| --- | --- | --- | --- | --- | --- | --- | --- | --- | --- | --- | --- | --- |
| elafin: elastase-inhibiting protein in the prior art, printed as isolated from european leeches (AQEPVKGPVSTKPGSCPIILIRCAMLNPPNRCLKDTDCPGIKKCCEGSCGMACFVPQ; UniProt P19957 61-117, looked up) | 0.6 | – | – | – | – | – | – | – | – | – | – | – |
| Guamerin: novel elastase-inhibiting protein isolated from a Korean leech, Guameri (Hirudo nipponia); 57 amino acids, 6,110 Da (VDENAEDTHGLCGEKTCSPAQVCLNNECACTAIRCMIFCPNGFKVDENGCEYPCTCA) | – | about 15% | 361 | about 90% | no effect | about 15% | no effect | no effect | about 15% | competitive inhibition | quite stable; also recorded: no change | no effect |
